# Measurements: US5969094A, “Anti-paramyxovirus screening method and vaccine” (Emory University, priority 1996, dated 1999)
# T1: SN-F (Sendai virus, UniProt P04855)
# T1 sequence (P04855 117-565 limits assumed): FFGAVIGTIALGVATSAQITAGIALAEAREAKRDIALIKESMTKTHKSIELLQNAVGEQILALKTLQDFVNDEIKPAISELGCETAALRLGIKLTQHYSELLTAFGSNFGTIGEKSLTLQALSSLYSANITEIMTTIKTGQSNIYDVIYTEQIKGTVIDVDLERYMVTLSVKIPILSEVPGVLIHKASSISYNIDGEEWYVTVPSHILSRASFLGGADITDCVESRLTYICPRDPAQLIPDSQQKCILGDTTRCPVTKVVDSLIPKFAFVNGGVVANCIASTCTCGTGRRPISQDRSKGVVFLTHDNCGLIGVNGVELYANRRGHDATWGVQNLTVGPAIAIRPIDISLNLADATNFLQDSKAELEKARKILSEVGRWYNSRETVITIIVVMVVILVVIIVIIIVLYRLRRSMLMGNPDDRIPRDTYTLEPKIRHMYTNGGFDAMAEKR
# T1 sequence (P04855 26-116 partner limits assumed): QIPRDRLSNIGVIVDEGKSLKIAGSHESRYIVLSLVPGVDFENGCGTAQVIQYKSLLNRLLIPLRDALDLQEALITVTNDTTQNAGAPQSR
# T2: SN-F, fusion glycoprotein of Sendai virus (Sendai virus (SN), UniProt P04855)
# T2 sequence: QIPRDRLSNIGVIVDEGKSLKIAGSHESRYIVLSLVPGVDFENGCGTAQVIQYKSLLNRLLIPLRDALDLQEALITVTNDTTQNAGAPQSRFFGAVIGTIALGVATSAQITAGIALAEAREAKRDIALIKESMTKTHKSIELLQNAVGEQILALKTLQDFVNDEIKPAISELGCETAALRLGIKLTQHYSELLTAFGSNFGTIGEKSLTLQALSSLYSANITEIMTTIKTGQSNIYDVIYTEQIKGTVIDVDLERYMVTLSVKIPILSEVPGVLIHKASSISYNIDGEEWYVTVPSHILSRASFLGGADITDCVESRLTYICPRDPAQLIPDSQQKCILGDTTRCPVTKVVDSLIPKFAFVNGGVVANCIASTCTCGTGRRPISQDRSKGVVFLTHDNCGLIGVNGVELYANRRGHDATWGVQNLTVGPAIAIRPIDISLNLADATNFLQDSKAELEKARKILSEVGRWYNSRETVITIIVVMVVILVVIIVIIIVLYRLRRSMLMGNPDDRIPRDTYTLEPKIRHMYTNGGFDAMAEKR
# Columns and labels:
# [1] = biological target: T1, SN-F; type: cell-based
# [2] = test system: HeLa-T4 cells; type: cell-based
# [3] = test system: guinea pig erythrocytes; type: cell-based
# [4] = biological target: T2, SN-F, fusion glycoprotein of Sendai …; experiment: cell-based or functional assay
Molecule,Fusion activity (5) [1],Relative fusion promoting activity b/a [1],cell fusion / syncytium formation with SN-F observed by microscopy [1],Cell surface expression (%) [2] [%],hemadsorption observed under the microscope [3],"Fusion activity (%), β-galactosidase production in the fusion dependent reporter gene activation assay [4]",HAD activity as percentage of wild type SN-HN hemadsorption [3],"fusion promoting activity, percentage of wild type SN-HN [1]"
SN-HN: wild type Sendai virus hemagglutinin-neuraminidase (HN) protein (protein) MDGDRGKRDSYWSTSPSGSTTKPASGWERSSKADTWLLILSFTQWALSIATVIICIIISARQGYSMKEYSMTVEALNMSSREVKESLTSLIRQEVIARAVNIQSSVQTGIPVLLNKNSRDVIQMIDKSCSRQELTQHCESTIAVHHADGIAPLEPHSFWRCPVGEPYLSSDPEISLLPGPSLLSGSTTISGCVRLPSLSIGEAIYAYSSNLITQGCADIGKSYQVLQLGYISLNSDMFPDLNPVVSHTYDINDNRKSCSVVATGTRGYQLCSMPTVDERTDYSSDGIEDLVLDVLDLKGRTKSHRYRNSEVDLDHPFSALYPSVGNGIATEGSLIFLGYGGLTTPLQGDTKCRTQGCQQVSQDTCNEALKITWLGGKQVVSVIIQVNDYLSERPKIRVTTIPITQNYLGAEGRLLKLGDRVYIYTRSSGWHSQLQIGVLDVSHPLTINWTPHEALSRPGNKECNWYNKCPKECISGVYTDAYPLSPDAANVATVTLYANTSRVNPTIMYSNTTNIINMLRIKDVQLEAAYTTTSCITHFGKGYCFHIIEINQKSLNTLQPMLFKTSIPKLCKAES,100.00,0.61,Extensive cell fusion,163.9,high levels of hemadsorption,,,
SN(27-140) chimeric HN protein (other) MEYWKHTNHGKDAGNELETSMATHGNWERSSKADTWLLILSFTQWALSIATVIICIIISARQGYSMKEYSMTVEALNMSSREVKESLTSLIRQEVIARAVNIQSSVQTGIPVLLNKNSRDVIQMIDKSCSRQELTQHCESRITHDVGIKPLNPDDFWRCTSGLPSLMKTPKIRLMPGPGLLAMPTTVDGCVRTPSLVINDLIYAYTSNLITRGCQDIGKSYQVLQIGIITVNSDLVPDLNPRISHTFNINDNRKSCSLALLNTDVYQLCSTPKVDERSDYASSGIEDIVLDIVNHDGSISTTRFKNNNISFDQPYAALYPSVGPGIYYKGKIIFLGYGGLEHPINENAICNTTGCPGKTQRDCNQASHSPWFSDRRMVNSIIVVDKGLNSIPKLKVWTISMRQNYWGSEGRLLLLGNKIYIYTRSTSWHSKLQLGIIDITDYSDIRIKWTWHNVLSRPGNNECPWGHSCPDGCITGVYTDAYPLNPTGSIVSSVILDSQKSRVNPVITYSTSTERVNELAIRNKTLSAGYTTTSCITHYNKGYCFHIVEINHKSLDTFQPMLFKTEIPKSCS,,,Syncytium formation was observed,75.6,high levels of hemadsorption,79.7 % of SN-HN wt with SN-F,comparable or higher HAD activity than that of SN-HN,
SN(140) chimeric HN protein (other) MDGDRGKRDSYWSTSPSGSTTKPASGWERSSKADTWLLILSFTQWALSIATVIICIIISARQGYSMKEYSMTVEALNMSSREVKESLTSLIRQEVIARAVNIQSSVQTGIPVLLNKNSRDVIQMIDKSCSRQELTQHCESRITHDVGIKPLNPDDFWRCTSGLPSLMKTPKIRLMPGPGLLAMPTTVDGCVRTPSLVINDLIYAYTSNLITRGCQDIGKSYQVLQIGIITVNSDLVPDLNPRISHTFNINDNRKSCSLALLNTDVYQLCSTPKVDERSDYASSGIEDIVLDIVNHDGSISTTRFKNNNISFDQPYAALYPSVGPGIYYKGKIIFLGYGGLEHPINENAICNTTGCPGKTQRDCNQASHSPWFSDRRMVNSIIVVDKGLNSIPKLKVWTISMRQNYWGSEGRLLLLGNKIYIYTRSTSWHSKLQLGIIDITDYSDIRIKWTWHNVLSRPGNNECPWGHSCPDGCITGVYTDAYPLNPTGSIVSSVILDSQKSRVNPVITYSTSTERVNELAIRNKTLSAGYTTTSCITHYNKGYCFHIVEINHKSLDTFQPMLFKTEIPKSCS,,0.66,lower level of syncytium formation,68.1,high levels of hemadsorption,44.6 % of SN-HN wt with SN-F,comparable or higher HAD activity than that of SN-HN,
SN(137) chimeric HN protein (other) MDGDRGKRDSYWSTSPSGSTTKPASGWERSSKADTWLLILSFTQWALSIATVIICIIISARQGYSMKEYSMTVEALNMSSREVKESLTSLIRQEVIARAVNIQSSVQTGIPVLLNKNSRDVIQMIDKSCSRQELTQHPPQRITHDVGIKPLNPDDFWRCTSGLPSLMKTPKIRLMPGPGLLAMPTTVDGCVRTPSLVINDLIYAYTSNLITRGCQDIGKSYQVLQIGIITVNSDLVPDLNPRISHTFNINDNRKSCSLALLNTDVYQLCSTPKVDERSDYASSGIEDIVLDIVNHDGSISTTRFKNNNISFDQPYAALYPSVGPGIYYKGKIIFLGYGGLEHPINENAICNTTGCPGKTQRDCNQASHSPWFSDRRMVNSIIVVDKGLNSIPKLKVWTISMRQNYWGSEGRLLLLGNKIYIYTRSTSWHSKLQLGIIDITDYSDIRIKWTWHNVLSRPGNNECPWGHSCPDGCITGVYTDAYPLNPTGSIVSSVILDSQKSRVNPVITYSTSTERVNELAIRNKTLSAGYTTTSCITHYNKGYCFHIVEINHKSLDTFQPMLFKTEIPKSCS,,,,,lower activities,0 % of SN-HN wt with SN-F,27.5%,did not show any significant fusion promoting activity
SN(44-140) chimeric HN protein (other) MEYWKHTNHGKDAGNELETSMATHGNKITNKITYILWTIILVLQWALSIATVIICIIISARQGYSMKEYSMTVEALNMSSREVKESLTSLIRQEVIARAVNIQSSVQTGIPVLLNKNSRDVIQMIDKSCSRQELTQHCESRITHDVGIKPLNPDDFWRCTSGLPSLMKTPKIRLMPGPGLLAMPTTVDGCVRTPSLVINDLIYAYTSNLITRGCQDIGKSYQVLQIGIITVNSDLVPDLNPRISHTFNINDNRKSCSLALLNTDVYQLCSTPKVDERSDYASSGIEDIVLDIVNHDGSISTTRFKNNNISFDQPYAALYPSVGPGIYYKGKIIFLGYGGLEHPINENAICNTTGCPGKTQRDCNQASHSPWFSDRRMVNSIIVVDKGLNSIPKLKVWTISMRQNYWGSEGRLLLLGNKIYIYTRSTSWHSKLQLGIIDITDYSDIRIKWTWHNVLSRPGNNECPWGHSCPDGCITGVYTDAYPLNPTGSIVSSVILDSQKSRVNPVITYSTSTERVNELAIRNKTLSAGYTTTSCITHYNKGYCFHIVEINHKSLDTFQPMLFKTEIPKSCS,,0.70,,126.6,high levels of hemadsorption,88.7 % of SN-HN wt with SN-F,comparable or higher HAD activity than that of SN-HN,
PI3-HN: wild type human parainfluenza type 3 virus HN protein (protein) MEYWKHTNHGKDAGNELETSMATHGNKITNKITYILWTIILVLLSIVFIIVLINSIKSEKAHESLLQDVNNEFMEVTEKIQMASDNINDLIQSGVNTRLLTIQSHVQNYIPISLTQQMSDLRKFISEITIRNDNQEVPPQRITHDVGIKPLNPDDFWRCTSGLPSLMKTPKIRLMPGPGLLAMPTTVDGCVRTPSLVINDLIYAYTSNLITRGCQDIGKSYQVLQIGIITVNSDLVPDLNPRISHTFNINDNRKSCSLALLNTDVYQLCSTPKVDERSDYASSGIEDIVLDIVNHDGSISTTRFKNNNISFDQPYAALYPSVGPGIYYKGKIIFLGYGGLEHPINENAICNTTGCPGKTQRDCNQASHSPWFSDRRMVNSIIVVDKGLNSIPKLKVWTISMRQNYWGSEGRLLLLGNKIYIYTRSTSWHSKLQLGIIDITDYSDIRIKWTWHNVLSRPGNNECPWGHSCPDGCITGVYTDAYPLNPTGSIVSSVILDSQKSRVNPVITYSTSTERVNELAIRNKTLSAGYTTTSCITHYNKGYCFHIVEINHKSLDTFQPMLFKTEIPKSCS,3.47,0.03,no cell fusion was observed,100.0,,,,
